Literature values in publication PMC5654615.
Like-named read-outs stand apart in the source and are kept apart here.

How the values were obtained:
[1] = target: TLR4 (Homo sapiens) (UniProt O00206); test: SPR
[2] = target: TLR4/MD2 complex (Homo sapiens) (UniProt O00206); test: SPR
[3] = target: MD2 (Homo sapiens) (UniProt Q9Y6Y9); test: SPR
[4] = target: TLR4/MD2 complex (Homo sapiens) (UniProt O00206)

UniProt Q9Y6Y9, sequence (Q9Y6Y9 19-160): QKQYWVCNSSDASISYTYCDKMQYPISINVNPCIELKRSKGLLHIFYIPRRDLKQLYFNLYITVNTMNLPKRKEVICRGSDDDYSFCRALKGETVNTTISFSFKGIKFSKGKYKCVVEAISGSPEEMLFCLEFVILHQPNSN

Q: Which Kd [1] does the source give for CIRP (from UniProt Q14011) here?
A: 617 nM

Q: What about the Kd [2] of the same substance?
A: 239 nM

Q: And the Kd [3]?
A: 302 nM

Q: For HMGB1 (from UniProt P09429), which Kd [4] is on record?
A: 1500 nM
